# Results from a protein production outcome set (Wang et al. 2014).
# Assay: label from the status in PepcDB records
row,Sequence,protein production
1,MNLVETAQAIEAGQVSLGIELGSTRIKAVLVTDDFNTIASGSYVWENRFEDGVWTYPLEEVWSGIQQSYTQMAADVQSKYHASLKHINAIGVSAMMHGYLAFDKNNELLVPFRTWRNNITGQSADELTKLFDFNIPQRWSIAHLYQAVLNDEDHVAKVDFITTLAGYVTWKLSGEKVLGVGDASGVFPIDEKTGSYDQAMLDKFSSLDNVKRYPWQIENILPSILPAGKIAGKLTADGANLLDASGNLEAGSVMAPPEGDAGTGMVGTNSVRKRTGNISVGTSAFSMNVLDKPLSKVYRDIDIVMTPDGSPVAMVHVNNCSSDINAWASIFSEFAARLGVDLKPDRLYETLFLESTKADANAGGLVNYSYQSGENITKIQAGRPLFVRTPNSKFSLPNFMLTQLYAAFAPLQIGMDILVNEEHVQTDVMIAQGGLFRTPVIGQQVLANALNIPITVMSTAGEGGPWGMAVLAAYAQRQTGANLEDFLDQEVFTNPESMTLSPEPAGVAGYQEFIKNYQAGLPVEAAAGEAISD,failed
2,MNMAHTTTSMEIFGSPEQVWQLIGGFNSLPDWLPYIPSSKLTEGGRVRHLANPDGDTIIERLEVFNDKERYYTYSIMNAPFPVTNYLSTIQVKEGTESNTSLVEWSGTFTPVEVSDEEAINLFHGIYSDGLKALQQAFLDLEHHHHHH,not failed
3,MNMVQGSAFLAKLMKSADTFELKYDFSCELYRLSTYSTFPAGVPVSERSLARAGFYYTGVNDKVKCFSCGLMLDNWKQGDSPIEKHRKLYPSCSFVQTLNPANSLEASPQPPLPSTATSTMPSGFAASESTGYFSGSYSSFPSDPVNFRANQDCPAFSTSPYHFAMNTEKARLLTYQTWPLSFLSPAELAKAGFYYTGPGDRVACFACGGKLSNWDRKDDPLSEHRRHFPSCPFLKDVGQFTSQYTVSNLSMQTHAARVRTFSTWPSSALVHPQELASAGFYYTGHSDDVKCFCCDGGLRCWESGDDPWVEHAKWFPRCEYLIRIKGQEFVGQVQAGYPHLLEQLLSTSDSPEDETGEAAIVHLGPGENWEDAVMMNTPVVKAALDMGFSRSLVRQTVQRQILATGENYRTVSDLVIGLLDAEDEMREEQTEQEAEEEESDDLTLIRKNKMVLLQHLTPVTPILDCLLSARVITEQEYDAVKQKPHTLQARTLIDTVLAKGNTAATSFRNSLQEIDPGLYRDIFVRQNIRSLPTDDIAALPMEEQLRKLQEERTCKVCMDREVSLVFIPCGHLVVCKECAPSLRKCPICRGTIKGTVRTFLS,failed
4,MNNDNNTILGFDVNLICDFFLNTERQGPGSPEVTLKALSFIDNLTNKSLIADLGCGTGGQTMILAQHVPGKITGIDFFPGFIERFNKNAEKLNLQNRVKGIVGSMDDLSFEKDSLDLIWSEGAIYNIGFERGLKEWRNYLKPGGYLAVSESVWFTDQRPAEIHDFWMSAYTEIDTVPNKVAQIQKAGYIPVATFILPENCWIEHYFAPQAKAEEIFRRKHAGSRIVEELITSNHHEAELYSKYKAYYGYAFFICKKGFSLRR,failed
5,MNNGRRIGLIMIITGATLWGLSGPMIQWLFQHTNVSSIDFLTIRLLLAGIFILSFLLIKKQNIFQIWKHPRYSIQLIIFSILGMLGAQYAFIETVHISNAVTATLFQFLGPVLITMYVAFEQRKFPASMQLFAIIAALIGTYFIITNGSIENIVLSKEAIIFGLLTAIGFAFYTLHPASLIKECGTTVVIGWGMLIGGIALLIYNRSFGWNQFSQTLTLKTFSMLILIIISGTLSFLLYIGSLKYLAATETSILSSIEPLVAAIVSITWLNESFGTYQLLGGVCIVLSVIFLTMPQKETEPTYTTEQI,failed
6,MNNIILMPILIPFLGAITLMLLPKRVIVQRVFALIFSGILVVATIGLVFYIRENGITTVNIGNWAAPFGITMVGDMLAVLLTATTSIVLFCVILYSFYTIGKPREKFLYYPAILFMIVGVNGSFLTGDIFNMFVFFEVMLMASYVLLVIGGTQVQLKATIKYLLINVVGSGFFVVAIALLYSMIGTLNMADISQKITDLNGANTGMISIVAVLFLFVFGLKAGLFPLYFWLPGSYFAPPIPVLALFGGLLTKVGVYAIIRTYTLFFSSLTDFVVPLLGILAIVTIILGVIGAISYYDMKTIVIYNIMIAIGVILFSVSIMTRESMTGAVFYLIHDMIIKAALFLIVGIVMAITGYSSVKKFSGLMSVKPSLGWIFFIATLGLAGIPPLSGFIGKLLIVEGAFSAGQMVGGIIILLSSLFVLMSLIKVFTKGFWGEKKGVFNLQIPYKKMLVPVVILLAISIGYGVFSNAIYPFIEQAVDPLVDPSVYIHAVIKE,failed
7,MNNPITAVWEITMGCNMRCKHCGSSCENALEGELTTEEALKLCDELGELGFKWITLSGGEPTTRKDWHLIAKRLNENGIIPNMITNGWLMNEEIADKAVEAGINTVAISVDGLEETHDFIRKKGSFQRIMRAFDILRTRNIFYSAITTINNINIKELPRLRDILIEKGVRGWQLQLGLPMGNMAKNNELVAQPYHIDEVIEFSYKTVKEGYNIDVQLADCIGYFNLKEIEVRKNSYGGGRDGYNWTGCGAGKYSLGILHNGDILGCTSVRDRSFIEGNIRQTPIKEIWMNPDSFSWNRKMTKDKLSGLCKKCYFGERCLGGCSNTRLTMEGSVYSENRYCSYNVAISTAREQLDRIEDVDVMLSKAKKFADNGNFQLAEILLSRAIEKGCRDIGVFEFYGYISFMLGNYLDAKKANEEALKINPDSAYANKGMGLSLGRLGELEKGIEYLRKAIALSDENFTDPYYDLAVLLYENGRKEEALEVLEEGRKKYKSFIDTSKDLYDILTNAS,failed
8,MNNPSETSKPSMESGDGNTGTQTNGLDFQKQPVPVGGAISTAQAQAFLGHLHQVQLAGTSLQAAAQSLNVQSKSNEESGDSQQPSQPSQQPSVQAAIPQTQLMLAGGQITGLTLTPAQQQLLLQQAQAQAQLLAAAVQQHSASQQHSAAGATISASAATPMTQIPLSQPIQIAQDLQQLQQLQQQNLNLQQFVLVHPTTNLQPAQFIISQTPQGQQGLLQAQNLLTQLPQQSQANLLQSQPSITLTSQPATPTRTIAATPIQTLPQSQSTPKRIDTPSLEEPSDLEELEQFAKTFKQRRIKLGFTQGDVGLAMGKLYGNDFSQTTISRFEALNLSFKNMCKLKPLLEKWLNDAENLSSDSSLSSPSALNSPGIEGLSRRRKKRTSIETNIRVALEKSFLENQKPTSEEITMIADQLNMEKEVIRVWFCNRRQKEKRINPPSSGGTSSSPIKAIFPSPTSLVATTPSLVTSSAATTLTVSPVLPLTSAAVTNLSVTGTSDTTSNNTATVISTAPPASSAVTSPSLSPSPSASASTSEASSASETSTTQTTSTPLSSPLGTSQVMVTASGLQTAAAAALQGAAQLPANASLAAMAAAAGLNPSLMAPSQFAAGGALLSLNPGTLSGALSPALMSNSTLATIQALASGGSLPITSLDATGNLVFANAGGAPNIVTAPLFLNPQNLSLLTSNPVSLVSAAAASAGNSAPVASLHATSTSAESIQNSLFTVASASGAASTTTTASKAQ,failed
9,MNNRELGRWQEHKHIGDYGWGIILCVIILCCIGMWAVYYACLHDLKVIDPVRTTMMQCLWYLVGALIATTMLHLSEKQLMQWAPIGYSIGMLLLILLLVLYSREYYVQTGAKSWFAIGTLTFQPVEVMKPLYILMMGRLIVQDQQWGPHNNFNADWRLTRRLVIYTFPIIVALKIINDFGTTLVFLTIFIGMLIVSPCRFSFLWRVLLVAGSIGVVLILLATSSTGQSLLSHIGFKLYQFDRINTWLNPSNGVSDQSYQLWQSMRAVGVGGLTGNGVTHNAVYVPVRESDMIFSVVGETTGFIGCSVLLIVYMYLFYLIFRSAFASRRRFYVYVSTGVAVMLAFHMFENIGMTIGLLPLTGIPLPFVSQGGSAIIGDFMGVGLVLATQYPNVRSIFSVPRIFH,failed
10,MNNSINHKFHHISRAEYQELLAVSRGDAVADYIIDNVSILDLINGGEISGPIVIKGRYIAGVGAEYADAPALQRIDARGATAVPGFIDAHLHIESSMMTPVTFETATLPRGLTTVICDPHEIVNVMGEAGFAWFARCAEQARQNQYLQVSSCVPALEGCDVNGASFTLEQMLAWRDHPQVTGLAEMMDYPGVISGQNALLDKLDAFRHLTLDGHCPGLGGKELNAYITAGIENCHESYQLEEGRRKLQLGMSLMIREGSAARNLNALAPLINEFNSPQCMLCTDDRNPWEIAHEGHIDALIRRLIEQHNVPLHVAYRVASWSTARHFGLNHLDLLAPGKQADIVLLSDARKVTVQQVLVKGEPIDAQTLQAEESARLAQSAPPYGNTIARQPVSASDFALQFTPGKRYRVIDVIHNELITHSHSSVYSENGFDRDDVCFIAVLERYGQRLAPACGLLGGFGLNEGALAATVSHDSHNIVVIGRSAEEMALAVYQVIQDGGGLCVVRNGQVQSHLPLPIAGLMSTDTAQSLAEQIDALKAAARECGPLPDEPFIQMAFLSLPVIPALKLTSQGLFDGEKFVFTTLEVTE,failed
11,MNNTKTYSKTSIALHWIVGLAFIGVFIIGAYLSDLPRGPEKMELVALHKSFGVLILLIALARVFWRIKEGAIPPASVMPAWQEKVAKAVHGLLLLATLAMPLSGIAMNIGGGRALEVFGYTLVAAGEKVVWLQELGAAVHKTAPPIIIAIVLLHIAAVLKHHLIDKDATMARMLGRG,failed
12,MNNTPKLKLGIVAVSRDCFPMELSENRRKAVVDAYNGEIFECLTTVENEKDMRKALKEVKSAGVNALVVYLGNFGPETPETLIAKEFDGPVMFAAAAEERGDNLVNGRGDAYCGMLNASYNLALRNINAYIPEYPVGTASDVANMINEFVPVATALIGLKNLKIISFGPRPQDFLACNAPIKQLYNLGVEIEENSELDLFASFNEHENDSRIPDVVKDMEEELGEGNKMPGILPKLAQYELTLLDWAEEHKGSREYVVFANKCWPAFQTQFGCVPCYVNSRLTARGIPVSCEVDIYGALSEYIGTCVSQDVVTLLDINNTVPKDMYESEIKSKFNYTLKDTFMGFHCGNTAACKLTSGTMKNQMIMARALEPNQEPNITRGTLEGDIVPGEITFFRLQSNADSELTAYVAEGEVLPVKTRSFGSIGVFAIPQMGRFYRHVLIENRFPHHGAVAFGHFGKAIYNLFRYLGVKEVGFNRPKEMLYKTENPFELEHHHHHH,not failed
13,MNNVFGLDIGTRNVVGTVGYQTDDKEFVVTAQYVREHETRAMLDGQIHDIGRVAKTIKEVKDELEKQTGQPLEEVCIAAAGRVLKTVTTHVEYEYAQESVVTGEDVHTLDLLGIEKAQEALKEVNDTSYKFYCVGYSTVKFFLNDEVFISLEGHKANKIGEDIIVTFLPEDVVDGLYAAVGQAGLSVANMTLEPIAAINVAIPENYRMLNIALVDVGAGTSDISITRDGSIIAYGMIPHAGDELTEVIVQHFLVDFNMAESIKLQSTTSDTVTYKDIMSIEHTIPAQDVWDVAAPVVDNIAQEVSAKIRELNGDKTVSACFVVGGGGKIHGFTEKLAEDLDLPEERVALRGEEVLGDVTFEQEDIKKDPLLVTPIGICLNYYDQRNNFIMVRFNGERIKLYDNNRLTIVDAALQAGFPNDELFPKRGTPINFTVNGVARLVRGEAGEGAVVTMNGKPASINTPLEPNSEIIIEPSTAGEAAVYKISQLDEYNHSVITFIINGRRVSCPRFVQVNGELEPEDYSIRENDVIETRNYYTVRQIAQFMDLVIDTDQMIFVNNEEAGLDTLVYENFSVEWKTDEYGVARIDNNTYNDTQESDTDEASVLAEQDANSTESDNTVARTSEQMMNQVLDELHDDFAKEAEASAVPENELPENELPKNDIQEEIHEEDSSKNTVTVIVNGEPVELSGKDTYIFVDIFTHISFDLQAGKGRAIATVINGRDARFSEELHEGDKIELYWKEN,failed
14,MNPIPADVAAVVLAGGVGRRFGRPKALAMMDGISLVERAVEALSSGPADVYVSVSPALERPVARLVGSRRVIVDLVEQAPCEGPLRAFLTAASTLVSYSNLVFMPVDAPWASWRDLEPIYNASKAIGSGASYFSGEGIVHPLFLAARRKSLLTAAWTACWGRAEKRASAILRSLDPLILLGSSETRSPLALATVNTPQDLWRPSRVPAPAEGYILLEGHSILYKISSTMNSYYSALALEAEYKLYRRLGLLRLASHVLKDAAALNVSTSLIQQESMAGGLGLEHHHHHH,failed
